Source: publication PMC5663480, “Structural inhibition of dynamin-mediated membrane fission by endophilin” (eLife, 2017)

Molecular target: the molecule itself
Test: cryo-EM structure; 2D class averages of endophilin-only coat on lipid tubules: 11 µM protein, DOPS liposomes (0.5 g/l), GTPase buffer, 30 min room temperature

B1: Rat endophilinA1 (natural protein, UniProt O35179 1-352, looked up)
chain: MSVAGLKKQFHKATQKVSEKVGGAEGTKLDDDFKEMERKVDVTSRAVMEIMTKTIEYLQPNPASRAKLSMINTMSKIRGQEKGPGYPQAEALLAEAMLKFGRELGDDCNFGPALGEVGEAMRELSEVKDSLDMEVKQNFIDPLQNLHDKDLREIQHHLKKLEGRRLDFDYKKKRQGKIPDEELRQALEKFDESKEIAESSMFNLLEMDIEQVSQLSALVQAQLEYHKQAVQILQQVTVRLEERIRQASSQPRREYQPKPRMSLEFATGDGTQPNGGLSHTGTPKPAGVQMDQPCCRALYDFEPENEGELGFKEGDIITLTNQIDENWYEGMLHGQSGFFPINYVEILVALPH
notes: Rat endophilinA1, wild type and full-length; source: E. coli, pGEX-6P vector, purified (glutathione Sepharose, PreScission cleavage)
B1: binds.
